From article PMC7311308

Biological target: CD46-D4

Work on Ad26 knob (domain or fragment) yielded a Kd of 120 nM.
